Results taken from PMC9105653, “Zinc and Copper Ions Induce Aggregation of Human β-Crystallins” (Molecules, 2022).

B1: human βB2-crystallin (HβB2) (natural protein)
chain: ASDHQTQAGKPQSLNPKIIIFEQENFQGHSHELNGPCPNLKETGVEKAGSVLVQAGPWVGYEQANCKGEQFVFEKGEYPRWDSWTSSRRTDSLSSLRPIKVDSQEHKIILYENPNFTGKKMEIIDDDVPSFHAHGYQEKVSSVRVQSGTWVGYQYPGYRGLQYLLEKGDYKDSSDFGAPHPQVQSVRRIRDMQWHQRGAFHPSN
notes: human beta-crystallin B2; printed length 205 residues; source: E. coli BL21-RIL, purified (HisTrap, SUMO protease Ulp1 cleavage, second HisTrap, Q-Sepharose)
B2: human βA1-crystallin (HβA1) (natural protein, UniProt P05813-2 1-198, looked up)
chain: MAQTNPTPGSLGPWKITIYDQENFQGKRMEFTSSCPNVSERSFDNVRSLKVESGAWIGYEHTSFCGQQFILERGEYPRWDAWSGSNAYHIERLMSFRPICSANHKESKMTIFEKENFIGRQWEISDDYPSLQAMGWFNNEVGSMKIQSGAWVCYQYPGYRGYQYILECDHHGGDYKHWREWGSHAQTSQIQSIRRIQQ
notes: human beta-crystallin A1, the shorter product of the gene CRYBA1 (made with betaA3 from the same gene by leaky ribosomal scanning); printed length 198 residues; source: E. coli BL21-RIL, purified (HisTrap, SUMO protease Ulp1 cleavage, second HisTrap, Q-Sepharose)

Target: the molecule itself
Assay: dynamic light scattering; 50 µM protein in 10 mM Hepes pH 8.0, 100 mM NaCl (buffer B), without metal ions; apparent RH compared with the RH predicted (HullRad) from face-en-face dimer models

| Protein | stoichiometry N |
| --- | --- |
| B1 | 2 |
| B2 | 2 |
